In patent US8796227B2, “Peptides for inhibiting chemokine binding to chemokine receptors” (Biokine Therapeutics Ltd., priority 2002, dated 2014):
One block for each sequence: values may come before it.

Key:
Human MCP-1 = biological target: T1, Human MCP-1 (Homo sapiens, UniProt P13500); assay: ELISA analysis of the synthetic chemokine-binding peptide; conditions: chemokine-coated wells, specific binding = at least two fold of binding to control proteins (BSA, Actin, Fibronectin)
T1 construct: purchased PeproTech, Inc. 300-04
T1 sequence (P13500 24-99): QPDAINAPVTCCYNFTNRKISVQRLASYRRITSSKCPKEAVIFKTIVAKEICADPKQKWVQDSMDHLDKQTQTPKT
Description: (§1) Recombinant chemokines were ordered from PeproTech, Inc. (Rocky Hill, N.J., USA). Human SDF-1α (Cat. No. 300-28A), human MIG (Cat. No. 300-26) and human IL-8, (72 amino acids) (Cat. No. 200-08M), belong to the alpha-chemokines (C-X-C) family. Human MCP-1 (MCAF) (Cat. No. 300-04) and human Eotaxin (Cat No. 300-21) belong to the beta-chemokines (C-C family). All chemokines were prepared according to the company recommendations.
(§2) Peptides were synthesized in the Weizmann Institute of Science, Rehovot, Israel, in order to perform tests for characterization of their influence on the biological activity of the chemokines. The format of the various synthesized peptides was as follows: The cyclic peptides, ACX7CGGGSK-biotin-G and the linear peptides, X12GGGSK-biotin-G. The peptides were biotinylated on their C-termini; the biotin will serve as a detector during the following experiments. Each synthetic peptide was dissolved to concentration of 1 mg/ml (˜0.6 mM) in 4% DMSO (Dimethyl Sulphoxide, Sigma, Cat. # D-2650).
(§3) NUNC-Immuno™ MaxiSorp™ plates (Cat. No. 4-42404) were coated with the appropriate chemokine (0.1 ml/well, 0.1-1.0 μg/ml in 0.1 M NaHCO3, pH 8.6), overnight at 4° C. The plates were then blocked with 0.2 ml/well of blocking buffer (5 mg/ml BSA in 0.1 NaHCO3). Control wells were treated with blocking buffer alone, with no addition of target protein (chemokine). The plates were washed 6 times with PBST (0.1% Tween 20 in PBS), followed by incubation for 45 minutes at room temperature with 10-fold serial dilutions of individual synthetic peptides (10pg-10 μg) with 1% BSA (PBST-BSA)/well. After the plates were washed 6 times with PBST, the bound peptides were probed by HRP-SA Conjugate, diluted 1:10,000 to 1:20,000 in PBST-BSA, 0.1 ml/well for 45 minutes at room temperature. The target-bound synthetic peptides probed with HRP-SA were quantified by DAKO TMB one-step substrate system, followed by the addition of stop solution, HCl—H2SO4 mixture (0.1 ml/well) (1N HCl, 3N H2SO4). The results were analyzed by ELISA reader at OD450.
(§4) The present invention identifies chemokine-binding peptides with biological activity. The binding specificities of the various peptides to the chemokines were determined by screening against BSA, Actin and Fibronectin-coated wells as negative controls in parallel experiments. The binding level of the peptides to the various chemokines, which reached at least two fold of the binding level to the control proteins, was considered a specific binding.
(§5) The specific binding of the peptides was detected by screening methodology, using ELISA, as described in “Materials and Methods”, employing microplates coated with the various chemokines to be checked. The binding specificities of the various peptides to the various chemokines were determined by screening against BSA, Actin and Fibronectin-coated wells as negative controls in parallel experiments.
(§6) Again, the specificity of the binding, either to one chemokine or more, was established by comparing binding level with the control binding level to non-related proteins, (shown in the Figure as a broken line).

Eotaxin [1] = biological target: T2, Eotaxin (Homo sapiens, UniProt P51671); assay: as above; conditions: chemokine-coated wells, specific binding = at least two fold of binding to control proteins (BSA, Actin, Fibronectin)
T2 construct: purchased PeproTech, Inc. 300-21
Description: as §1, §2, §3, §4, §5, §6

human IL-8 = biological target: T3, human IL-8 (Homo sapiens, UniProt P10145); assay: as above; conditions: chemokine-coated wells, specific binding = at least two fold of binding to control proteins (BSA, Actin, Fibronectin)
T3 construct: human IL-8, (72 amino acids) (Cat. No. 200-08M); purchased PeproTech, Inc. 200-08M
T3 sequence (P10145 28-99 limits assumed): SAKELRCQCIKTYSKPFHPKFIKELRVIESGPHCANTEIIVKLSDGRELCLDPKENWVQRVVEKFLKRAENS
Description: as §1, §2, §3, §4, §5, §6

MIG [2] = biological target: T4, MIG (Homo sapiens, UniProt Q07325); assay: as above; conditions: chemokine-coated wells, specific binding = at least two fold of binding to control proteins (BSA, Actin, Fibronectin)
T4 construct: purchased PeproTech, Inc. 300-26
T4 sequence (Q07325 23-125): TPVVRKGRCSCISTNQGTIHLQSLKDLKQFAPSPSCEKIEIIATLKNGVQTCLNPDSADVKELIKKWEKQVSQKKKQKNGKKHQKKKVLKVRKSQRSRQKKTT
Description: as §1, §2, §3, §4, §5, §6

MIG [3] = biological target: T4, MIG; assay: Biovalidation: laminar flow assay, chemokine and VCAM-1 activated adhesion of T cells; type: cell-based; conditions: for Level of Antagonistic Effect: Chemokine checked MIG, T cells, peptide 10 μg/ml; for Level of Antagonistic Effect / Reduction of the activity of MIG: VCAM-1; for Reduction of the activity of MIG: T cell adhesion under flow; for Percentage of arrested cells: MIG plus peptide (FIG. 4), MIG alone about 25-30%, control = VCAM-1 alone
Description: 50 ml blood was added to 10 ml Dextran (Dextran T-500 6% w/v) in PBS (phosphate buffer saline), and 7 ml citrate buffer (25 g citrate, 8 g citric acid in 500 ml PBS). The solution was incubated for 30 min at 25° C. 10 ml Ficoll 1077 (Sigma) was added to the bottom of the tube. The tube was then centrifuged at 2,000 rpm for 30 min, at 18° C., (with the brake mode of the centrifuge off). The interphase was collected and washed twice with 8 ml PBS-5% FCS (fetal calf serum), followed by centrifugation at 1,400 rpm, for 5 min, at 18° C. The cells were re-suspended in PBS-5% FCS at a concentration less than 10^8/ml. 2 ml of the cell solution were applied and incubated for 45 min at 25° C. on a Perspex Nylon wool column, which was pre-soaked with PBS-5% FCS. Each column was washed with 8 ml PBS-5% FCS and the cells (T-cells and erythrocytes) were eluted by 50 ml of 5 mM EDTA in PBS. A red pellet was obtained by centrifugation at 1,400 rpm, at 4° C., for 5 min, with the brake on. In order to perform lysis of the erythrocytes, the red pellet was re-suspended in 5 ml lysis-buffer (155 mM NH4Cl, 10 mM KHCO3, 0.1 mM EDTA, X0.1PBS) for 4 min, followed by immediate addition of 50 ml of PBS-EDTA.
Following centrifugation at 1,400 rpm, at 4° C., for 5 min with brake on, the pellet was washed again with 50 ml PBS-EDTA and re-centrifuged under the same conditions. A white pellet was obtained and re-suspended in RPMI/10% FCS/L-glutamine/sodium pyruvate/antibiotics at a concentration of 3^X10^6 cells/ml. The cells were incubated for 2 h at 37° C., followed by collection of the non-adherent cells. The cells were ready for use in experiments after overnight incubation at 37° C. […]
Laminar flow assays were performed as follows. Polystyrene plates (B.D) were coated with soluble VCAM-1 at 10 μg/ml in the presence of 2 μg/ml HSA carrier. The plates were washed three times with PBS and blocked with HSA (20 μg/ml in PBS) for 2 hrs at room temperature. Alternatively, washed plates were coated with 10 μg/ml MIG chemokine in PBS for 30 min at room temperature, before being blocked with HSA. The plates were assembled as the lower wall of a parallel wall flow chamber and mounted on the stage of an inverted microscope. The peptide, as described previously, (10 μg/ml) was allowed to settle on the substrate coated chamber wall for 10 min, at 37° C. and then washed. T cells (5×10^6/ml, purity >98%) were suspended in binding buffer, perfused into the chamber and allowed to settle on the substrate coated chamber wall for 1 min, at 37° C. Flow was initiated and increased in 2 to 2.5 fold increments every 5 sec. generating controlled shear stresses on the wall. Cells were visualized in a 20× objective of an inverted phase-contrast Diaphot Microscope (Nikon, Japan) and photographed with a long integration LIS-700 CCD video camera (Applitech; Holon, Israel), connected to a video recorder (AG-6730 S-VHS, Panasonic, Japan). The number of adherent cells resisting detachment by the elevated shear forces was determined after each interval by analysis of videotaped cell images, and was expressed as the percent of originally settled cells. All adhesion experiments were performed at least three times on multiple test fields.

IL-8 = biological target: T5, IL-8 (Homo sapiens, UniProt P10145); assay: as above; type: cell-based; set-up: key to Level of Antagonistic Effect / Level of Effect: + 20%; ++ 50%; +++ 100%; − No effect; conditions: VCAM-1; for Level of Antagonistic Effect: Chemokine checked IL-8, T cells, peptide 10 μg/ml; for Abolishment of the activity of IL-8: T cell adhesion under flow
T5 construct: human IL-8, (72 amino acids) (Cat. No. 200-08M); purchased PeproTech, Inc. 200-08M
T5 sequence (P10145 28-99): T3 sequence (P10145 28-99 limits assumed)

SDF-1α = biological target: T6, SDF-1α (Homo sapiens, UniProt P48061); assay: ELISA analysis of the synthetic chemokine-binding peptide; conditions: chemokine-coated wells, specific binding = at least two fold of binding to control proteins (BSA, Actin, Fibronectin)
T6 construct: purchased PeproTech, Inc. 300-28A
T6 sequence (P48061 22-89 limits assumed): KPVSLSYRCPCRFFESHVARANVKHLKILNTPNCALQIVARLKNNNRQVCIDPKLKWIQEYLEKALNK
Description: as §1, §2, §3, §4, §5, §6

Eotaxin [4] = biological target: T2, Eotaxin; assay: Biovalidation: laminar flow assay, chemokine and VCAM-1 activated adhesion of T cells; type: cell-based; conditions: VCAM-1
[5] = test system: chemokines MCP-1, SDF-1α, MIG, Eotaxin and IL-8; assay: ELISA binding to the panel of chemokines (chemokine not singled out); set-up: species or system human; conditions: five chemokines tested, control binding level = one fold
Description: as §1, §2, §3
The present invention identifies chemokine-binding peptides with biological activity. The binding specificities of the various peptides to the chemokines were determined by screening against BSA, Actin and Fibronectin-coated wells as negative controls in parallel experiments. […]
The specific binding of the peptides was detected by screening methodology, using ELISA, as described in “Materials and Methods”, employing microplates coated with the various chemokines to be checked. The binding specificities of the various peptides to the various chemokines were determined by screening against BSA, Actin and Fibronectin-coated wells as negative controls in parallel experiments. […]

Sequence: VHTSLLQKHPLP [BKT-P26]
Bound chemokines (at least): MCP-1 (Human MCP-1): MCP-1

Sequence: YATQHNWRLKHE [BKT-P53]
Bound chemokines (at least): MCP-1 (Human MCP-1): MCP-1

Sequence: AHSLKSITNHGL [BKT-P44]
Bound chemokines (at least): MCP-1 (Human MCP-1): MCP-1

Sequence: SAISDHRAHRSH [BKT-P40]
Bound chemokines (at least): IL-8 (human IL-8): IL-8

Sequence: SAGHIHEAHRPL [BKT-P39]
Bound chemokines (at least): Eotaxin (Eotaxin [1]): Eotaxin,
Bound chemokines (at least): SDF-1α (SDF-1α): SDF-1α
Bound chemokines (at least): IL-8 (human IL-8): IL-8
Level of Antagonistic Effect (IL-8): −
Abolishment of the activity of IL-8 (IL-8): no effect
Level of Antagonistic Effect (Eotaxin [4]; Chemokine checked Eotaxin, T cells, peptide 10 μg/ml): +++ (+++ 100%)
Blocking of the activity of Eotaxin (Eotaxin [4]; T cell adhesion under flow): 100%

Sequence: ESDLTHALHWLG [BKT-P51]
Bound chemokines (at least): MCP-1 (Human MCP-1): MCP-1

Sequence: SIFAHQTPTHKN [BKT-P3]
Bound chemokines (at least): MCP-1 (Human MCP-1): MCP-1
Bound chemokines (at least): MIG (MIG [2]): highest binding level and MIG
Bound chemokines (at least): IL-8 (human IL-8): IL-8
Binding to the various chemokines [5]: binds to all five chemokines tested
Level of Antagonistic Effect (MIG [3]): +++ (+++ 100%)
Percentage of arrested cells (MIG [3]): dramatically reduced
Reduction of the activity of MIG (MIG [3]): complete arrest
Level of Antagonistic Effect (IL-8): +++ (+++ 100%)
Abolishment of the activity of IL-8 (IL-8): complete arrest

Results, then the sequence that gave them:

Bound chemokines (at least): MCP-1 (Human MCP-1): MCP-1
Sequence: LDYPIPQTVLHH [BKT-P46]

Bound chemokines (at least): MCP-1 (Human MCP-1): MCP-1
Sequence: WSAHIVPYSHKP [BKT-P52]

Bound chemokines (at least): Eotaxin (Eotaxin [1]): Eotaxin
Sequence: SVQTRPLFHSHF [BKT-P34]

Bound chemokines (at least): MCP-1 (Human MCP-1): MCP-1
Sequence: ACHASLKHRC [BKT-P48]

Bound chemokines (at least): MCP-1 (Human MCP-1): MCP-1
Bound chemokines (at least): MIG (MIG [2]): MIG
Bound chemokines (at least): IL-8 (human IL-8): IL-8
Level of Antagonistic Effect (MIG [3]): + (+ 20%)
Reduction of the activity of MIG (MIG [3]): about 20%
Level of Antagonistic Effect (IL-8): +++ (+++ 100%)
Abolishment of the activity of IL-8 (IL-8): 100%
Sequence: HHFHLPKLRPPV [BKT-P45]

Bound chemokines (at least): MIG (MIG [2]): does not bind
Percentage of arrested cells (MIG [3]): 25%-30%
Reduction of the activity of MIG (MIG [3]): no influence on the activity of MIG
Sequence: CDIPWRNEC [BKT-P10]

Bound chemokines (at least): MCP-1 (Human MCP-1): MCP-1
Sequence: TRLVPSRYYHHP [BKT-P47]
